According to PMC10786891, “Massively parallel profiling of RNA-targeting CRISPR-Cas13d”:

T1: EsCas13d, nuclease-dead (Eubacterium siraeum, UniProt B0MS50, R295A;H300A;R849A;H854A)
T1 sequence: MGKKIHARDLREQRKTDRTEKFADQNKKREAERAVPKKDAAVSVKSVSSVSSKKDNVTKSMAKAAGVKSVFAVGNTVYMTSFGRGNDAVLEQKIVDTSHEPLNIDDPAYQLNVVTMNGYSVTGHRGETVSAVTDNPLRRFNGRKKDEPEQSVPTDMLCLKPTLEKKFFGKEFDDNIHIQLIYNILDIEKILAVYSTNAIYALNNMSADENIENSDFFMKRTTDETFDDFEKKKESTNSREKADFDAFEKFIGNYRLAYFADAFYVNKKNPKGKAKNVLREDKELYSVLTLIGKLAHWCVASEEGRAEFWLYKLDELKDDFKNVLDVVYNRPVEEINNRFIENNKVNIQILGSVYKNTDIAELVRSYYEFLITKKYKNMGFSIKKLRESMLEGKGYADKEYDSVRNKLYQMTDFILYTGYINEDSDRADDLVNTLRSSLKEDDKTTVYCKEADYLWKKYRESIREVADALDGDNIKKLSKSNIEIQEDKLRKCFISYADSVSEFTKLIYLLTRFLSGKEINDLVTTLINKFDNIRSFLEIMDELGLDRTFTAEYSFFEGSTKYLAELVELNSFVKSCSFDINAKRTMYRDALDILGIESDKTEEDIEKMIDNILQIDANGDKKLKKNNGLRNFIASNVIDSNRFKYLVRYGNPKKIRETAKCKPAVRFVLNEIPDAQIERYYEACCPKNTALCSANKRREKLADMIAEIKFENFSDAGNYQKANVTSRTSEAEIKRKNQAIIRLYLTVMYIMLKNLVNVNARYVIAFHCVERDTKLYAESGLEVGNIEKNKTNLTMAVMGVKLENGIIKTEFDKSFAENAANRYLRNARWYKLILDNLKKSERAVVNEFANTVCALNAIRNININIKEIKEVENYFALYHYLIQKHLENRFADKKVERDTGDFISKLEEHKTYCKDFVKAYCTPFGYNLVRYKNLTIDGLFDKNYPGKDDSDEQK


Molecular target: T1, EsCas13d, nuclease-dead
Assay: crRNA (strand 1, pre-loaded); Mg2+; 40 mM Tris-HCl pH 7.5, 150 mM NaCl, 6 mM MgCl2, 1 mM DTT, 0.1% Tween-20, 0.2 mg/ml BSA; 25 C; 10 min per concentration, then washed
Settings: tags: His6-TwinStrep-SUMO cleaved; N-terminal SNAP kept (SNAP-Surface 488); label: 3' end held by stalled T7 RNA polymerase

Row | Binder | Kd [nM]
1 | target 1 insG 3' of 7,insG 3' of 6 (mixed) RNA 1: CACCCGUGCAAAAAUGCAGGGGUCUAAAACUGAGCGGAUAACCUCUCUAUGG RNA 2: GGGAAUGGAUCCACAUCUACGAAUUCGUACCAUAGAGAGGUUAUCGCGGCUCACCGAGAUCGGAAGAGCACACGU | 8.54 ± 0.3
2 | target 1 del18 (mixed) RNA 1: CACCCGUGCAAAAAUGCAGGGGUCUAAAACUGAGCGGAUAACCUCUCUAUGG RNA 2: GGGAAUGGAUCCACAUCUACGAAUUCGUACCAUGAGAGGUUAUCCGCUCACCGAGAUCGGAAGAGCACACGU | 42 ± 8
3 | target 1 insU 3' of 15,insU 3' of 5 (mixed) RNA 1: CACCCGUGCAAAAAUGCAGGGGUCUAAAACUGAGCGGAUAACCUCUCUAUGG RNA 2: GGGAAUGGAUCCACAUCUACGAAUUCGUACCAUAGAGUAGGUUAUCCGUCUCACCGAGAUCGGAAGAGCACACGU | 35 ± 5
4 | target 1 insA 3' of 11,insC 3' of 3 (mixed) RNA 1: CACCCGUGCAAAAAUGCAGGGGUCUAAAACUGAGCGGAUAACCUCUCUAUGG RNA 2: GGGAAUGGAUCCACAUCUACGAAUUCGUACCAUAGAGAGGUAUAUCCGCUCCACCGAGAUCGGAAGAGCACACGU | 13.8 ± 0.6
5 | target 1 C4U,A14G (mixed) RNA 1: CACCCGUGCAAAAAUGCAGGGGUCUAAAACUGAGCGGAUAACCUCUCUAUGG RNA 2: GGGAAUGGAUCCACAUCUACGAAUUCGUACCAUAGAGGGGUUAUCCGUUCACCGAGAUCGGAAGAGCACACGU | ~60
6 | target 1 U11C,A14G (mixed) RNA 1: CACCCGUGCAAAAAUGCAGGGGUCUAAAACUGAGCGGAUAACCUCUCUAUGG RNA 2: GGGAAUGGAUCCACAUCUACGAAUUCGUACCAUAGAGGGGCUAUCCGCUCACCGAGAUCGGAAGAGCACACGU | 13.4 ± 0.6
7 | target 1 insA 3' of 13,insA 3' of 3 (mixed) RNA 1: CACCCGUGCAAAAAUGCAGGGGUCUAAAACUGAGCGGAUAACCUCUCUAUGG RNA 2: GGGAAUGGAUCCACAUCUACGAAUUCGUACCAUAGAGAGAGUUAUCCGCUACACCGAGAUCGGAAGAGCACACGU | 3.99 ± 0.33
8 | target 1 insU 3' of 17,insC 3' of 8 (mixed) RNA 1: CACCCGUGCAAAAAUGCAGGGGUCUAAAACUGAGCGGAUAACCUCUCUAUGG RNA 2: GGGAAUGGAUCCACAUCUACGAAUUCGUACCAUAGUAGAGGUUAUCCCGCUCACCGAGAUCGGAAGAGCACACGU | 44 ± 8
9 | target 1 U10G (mixed) RNA 1: CACCCGUGCAAAAAUGCAGGGGUCUAAAACUGAGCGGAUAACCUCUCUAUGG RNA 2: GGGAAUGGAUCCACAUCUACGAAUUCGUACCAUAGAGAGGUGAUCCGCUCACCGAGAUCGGAAGAGCACACGU | 19.9 ± 1.1
10 | target 1 insA 3' of 17,insG 3' of 2 (mixed) RNA 1: CACCCGUGCAAAAAUGCAGGGGUCUAAAACUGAGCGGAUAACCUCUCUAUGG RNA 2: GGGAAUGGAUCCACAUCUACGAAUUCGUACCAUAGAAGAGGUUAUCCGCUCGACCGAGAUCGGAAGAGCACACGU | 17.3 ± 2.5
11 | target 1 A1C,U10G (mixed) RNA 1: CACCCGUGCAAAAAUGCAGGGGUCUAAAACUGAGCGGAUAACCUCUCUAUGG RNA 2: GGGAAUGGAUCCACAUCUACGAAUUCGUACCAUAGAGAGGUGAUCCGCUCCCCGAGAUCGGAAGAGCACACGU | 26 ± 5
12 | target 1 A1U,U19G (mixed) RNA 1: CACCCGUGCAAAAAUGCAGGGGUCUAAAACUGAGCGGAUAACCUCUCUAUGG RNA 2: GGGAAUGGAUCCACAUCUACGAAUUCGUACCAGAGAGAGGUUAUCCGCUCUCCGAGAUCGGAAGAGCACACGU | 63 ± 12
13 | target 1 A1G,U10G (mixed) RNA 1: CACCCGUGCAAAAAUGCAGGGGUCUAAAACUGAGCGGAUAACCUCUCUAUGG RNA 2: GGGAAUGGAUCCACAUCUACGAAUUCGUACCAUAGAGAGGUGAUCCGCUCGCCGAGAUCGGAAGAGCACACGU | 21.1 ± 1.1
